From article PMC3695229, “Identification of a Novel TGF-β-Binding Site in the Zona Pellucida C-terminal (ZP-C) Domain of TGF-β-Receptor-3 (TGFR-3)” (PLoS ONE, 2013)
Numbering of substitutions follows the chain as printed.

B1: murine TGFR-3-ZP (recombinant ZP domain of TGF-β receptor type 3, residues 438-782, including the EHP) (domain or fragment, mouse, UniProt O88393 438-782, looked up)
chain: REPEEVQGGVNIALSVKCDNEKMVVAVDKDSFQTNGYSGMELTLLDPSCKAKMNGTHFVLESPLNGCGTRHRRSAPDGVVYYNSIVVQAPSPGDSSGWPDGYEDLESGDNGFPGDTDEGETAPLSRAGVVVFNCSLRQLRSPSGFQDQLDGNATFNMELYNTDLFLVPSPGVFSVAENEHVYVEVSVTKADQDLGFAIQTCFISPYSNPDRMSDYTIIENICPKDDSVKFYSSKRVHFPIPHAEVDKKRFSFVFKSVFNTSLLFLHCELTLCSRNKGSQKLPKCVTPDDACTSLDATMIWTMMQNKKTFTKPLAVVLQVDYKENVPNMKESSPVPPPPQIFHGLD
modifications: secretory glycoprotein; four potential N-glycosylation sites (positions 491, 570, 589 and 696)
notes: TGF-β receptor type 3 (TGFR-3, betaglycan), mouse, residues 438-782 (ZP core domain plus C-terminal extension 729-782 with the EHP); numbering adheres to UniProtKB/TrEMBL O88393 and includes the N-terminal signal peptide; From the forward primer the thrombin site LVPRGS precedes residue 438, so Gly-Ser probably remain after cleavage (surmised); Dimer by DLS and SEC only (apparent masses); also …
B2: TGFR-3-ZP(234) (domain or fragment, mouse, UniProt O88393 438-782, looked up)
chain: B1 chain with N133Q, N152Q, N259Q
modifications: one remaining potential N-glycosylation site (N491)
notes: TGF-β receptor type 3 (TGFR-3, betaglycan), mouse, residues 438-782 with three of four potential N-glycosylation sites mutated to glutamine; numbering adheres to O88393 including the signal peptide; Same construct and vector as m1; also called glycosylation-attenuated TGFR-3-ZP variant; source: HEK293 EBNA cells, secreted, purified (Ni-Sepharose, thrombin cleavage, SEC); not shown: His6, …
B3: human BMP-2 (ligand, UniProt P12643 283-396, looked up)
chain: QAKHKQRKRLKSSCKRHPLYVDFSDVGWNDWIVAPPGYHAFYCHGECPFPLADHLNSTNHAIVQTLVNSVNSKIPKACCVPTELSAISMLYLDENEKVVLKNYQDMVVEGCGCR
modifications: biotinylated with Sulfo-NHS-LC-biotin (1 or 2 biotin moieties) for immobilisation
notes: bone morphogenetic protein 2, human; also called bone morphogenetic protein 2

Assays:
[1] = molecular target: the molecule itself; experiment: dynamic light scattering; TGFR-3-ZP alone, 2 mg/ml, 20 mM HEPES pH 7.4, 20°C; apparent molecular weight from hydrodynamic radius
[2] = molecular target: the molecule itself; experiment: SEC; analytical SEC of the ligand-free protein on Superdex 200 10/300, 4°C, 0.5 ml/min; apparent molecular weight against standards
[3] = molecular target: B1; experiment: SPR; Biacore 2000; biotinylated ligands immobilised on streptavidin-coated CM5 chip, TGFR-3-ZP variants as analytes; 25°C, HBS500 (10 mM HEPES pH 7.4, 500 mM NaCl, 3.4 mM EDTA, 0.005% P20); apparent affinities from equilibrium binding; details: both partners purified
TGFR-3-ZP(234) = molecular target: B2; experiment: as above; details: both partners purified

Binder: B1
stoichiometry N [1]: 2

Binder: B2
stoichiometry N [2]: 2

Binder: B3
Kd [3]: 29.1 µM
Kd (TGFR-3-ZP(234)): 34.6 µM
